In the supplement of paper PMC10201428:
± gives the standard deviation of the averaged measurements.

How the values were obtained:
[1] = tested on: VchCAST RNA-guided transposition machinery (E. coli BL21(DE3) host, lacZ target); assay: relative integration efficiency (T-RL orientation) vs wild-type transposon end (log2 (normalized fold change)); transposon end mutated: right end (5 bp flank + 75 bp right end); higher = more efficient transposition
Experimental: (§1)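 Pooled, barcoded VchCAST (Tn6677) mini-transposon donor libraries; each variable transposon-end sequence sits in a fixed pDonor mini-transposon context (10-bp barcode and cargo not included). Left- or right-end libraries were co-transformed with pEffector (TniQ-Cascade, TnsABC, lacZ crRNA, T7, 0.1 mM IPTG) into E. coli BL21(DE3) and grown 18 h at 37 C. T-LR and T-RL junction amplicons were sequenced; output/input barcode fold change was normalised to the mean of four wild-type barcodes and log2-transformed. Two biological replicates; zero-count/undetected variants carry floor values (-10 / -15), censored here. Barcode uncoupling by PCR recombination adds noise.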

[2] = tested on: VchCAST RNA-guided transposition machinery (E. coli BL21(DE3) host, lacZ target); assay: relative integration efficiency (T-LR orientation) vs wild-type transposon end (log2 (normalized fold change)); transposon end mutated: right end (5 bp flank + 75 bp right end); higher = more efficient transposition
Experimental: as §1

Row | Sequence | relative integration efficiency (log2) [1] | relative integration efficiency (log2) [2]
1 | AACGGTGTTGATACAACCATAAAATGATAATTACACCCATAAATTGATAATTATCACACCCATAAATTGATATTGCCTCTGATCATAGTCAGACCAACATTGCTACGACCCGTATTCGCACCGACAC | -0.153 ± 0.0083 | 0.221 ± 0.4
2 | AACTTTGTTGATACAACCATAAAATGATAATTACACCCATAAATTGATAATTATCACACCCATAAATTGATATTGCCTCTGATCATAGTCAGACCAACATTGCTACGACCCGTATTCGCACCGACAC | -0.217 ± 0.078 | 0.0855 ± 0.25
3 | ACAAATGTTGATACAACCATAAAATGATAATTACACCCATAAATTGATAATTATCACACCCATAAATTGATATTGCCTCTGATCATAGTCAGACCAACATTGCTACGACCCGTATTCGCACCGACAC | 0.215 ± 0.12 | 0.224 ± 0.075
4 | ACAGGTGTTGATACAACCATAAAATGATAATTACACCCATAAATTGATAATTATCACACCCATAAATTGATATTGCCTCTGATCATAGTCAGACCAACATTGCTACGACCCGTATTCGCACCGACAC | -0.284 ± 0.012 | -0.1 ± 0.25
5 | ACATAAGTTGATACAACCATAAAATGATAATTACACCCATAAATTGATAATTATCACACCCATAAATTGATATTGCCTCTGATCATAGTCAGACCAACATTGCTACGACCCGTATTCGCACCGACAC | -6.621 ± 0.045 | -4.25 ± 0.29
6 | ACATGGGTTGATACAACCATAAAATGATAATTACACCCATAAATTGATAATTATCACACCCATAAATTGATATTGCCTCTGATCATAGTCAGACCAACATTGCTACGACCCGTATTCGCACCGACAC | -6.44 ± 0.3 | -5.51 ± 0.64
7 | ACATTACAAGATACAACCATAAAATGATAATTACACCCATAAATTGATAATTATCACACCCATAAATTGATATTGCCTCTGATCATAGTCAGACCAACATTGCTACGACCCGTATTCGCACCGACAC | -5.91 ± 0.056 | -4.65 ± 0.93
8 | ACATTAGTCGATACAACCATAAAATGATAATTACACCCATAAATGGATAATTATCACACCCAATTTAACTATAACGCTCTGATCATAGTCAGACCAACATTGCTACGACCCGTATTCGCACCGACAC | -6.76 ± 0.26 | -5.29 ± 1.4
9 | ACATTAGTCGATACAACCATAAAATGATAATTACACCCATAAATGGATCATTATCACACCCAATTTAACTATAACGCTCTGATCATAGTCAGACCAACATTGCTACGACCCGTATTCGCACCGACAC | -8.21 ± 0.66 | -5.41 ± 0.28
10 | ACATTAGTCGATACAACCATAAAATGATAATTACACCCATAAATTCATCATTATCACACCCAATTTAACTATAACGCTCTGATCATAGTCAGACCAACATTGCTACGACCCGTATTCGCACCGACAC | -7.32 ± 0.43 | -6.06 ± 1.4
11 | ACATTAGTCGATACAACCATAAAATGATAATTACACCCATAAATTGATAATTATCACACCCAATTTAACTATAACGCTCTGATCATAGTCAGACCAACATTGCTACGACCCGTATTCGCACCGACAC | -7.53 ± 1.2 | -5.9 ± 1.5
12 | ACATTAGTCGATACAACCATAAAATGATAATTACACCCATAAATTGATCATTATCACACCCAATTTAACTATAACGCTCTGATCATAGTCAGACCAACATTGCTACGACCCGTATTCGCACCGACAC | -7.26 ± 0.69 | -3.34 ± 1
13 | ACATTAGTGGATACAACCATAAAATGATAATTACACCCATAAATGGATAATTATCACACCCAATTTAACTATAACGCTCTGATCATAGTCAGACCAACATTGCTACGACCCGTATTCGCACCGACAC | -7.08 ± 1.1 | -5.46 ± 0.48
14 | ACATTAGTGGATACAACCATAAAATGATAATTACACCCATAAATTCATAATTATCACACCCAATTTAACTATAACGCTCTGATCATAGTCAGACCAACATTGCTACGACCCGTATTCGCACCGACAC | -7.6 ± 0.5 | -5.23 ± 1.8
15 | ACATTAGTGGATACAACCATAAAATGATAATTACACCCATAAATTCATCATTATCACACCCAATTTAACTATAACGCTCTGATCATAGTCAGACCAACATTGCTACGACCCGTATTCGCACCGACAC | -7.21 ± 0.51 | -4.73 ± 0.58
16 | ACATTAGTGGATACAACCATAAAATGATAATTACACCCATAAATTGATAATTATCACACCCAATTTAACTATAACGCTCTGATCATAGTCAGACCAACATTGCTACGACCCGTATTCGCACCGACAC | -5.98 ± 0.27 | -3.09 ± 0.75
17 | ACATTAGTGGATACAACCATAAAATGATAATTACACCCATAAATTGATCATTATCACACCCAATTTAACTATAACGCTCTGATCATAGTCAGACCAACATTGCTACGACCCGTATTCGCACCGACAC | -7.5 ± 0.15 | -5.22 ± 1.2
18 | ACATTAGTTCATACAACCATAAAATGATAATTACACCCATAAATGGATAATTATCACACCCAATTTAACTATAACGCTCTGATCATAGTCAGACCAACATTGCTACGACCCGTATTCGCACCGACAC | -6.74 ± 0.15 | -3.62 ± 0.12

Row | Sequence | relative integration efficiency (log2) [1] | relative integration efficiency (log2) [2]
19 | ACATTAGTTCATACAACCATAAAATGATAATTACACCCATAAATGGATCATTATCACACCCAATTTAACTATAACGCTCTGATCATAGTCAGACCAACATTGCTACGACCCGTATTCGCACCGACAC | -7.359 ± 0.025 | -7.73 ± 1.7
20 | ACATTAGTTCATACAACCATAAAATGATAATTACACCCATAAATTCATCATTATCACACCCAATTTAACTATAACGCTCTGATCATAGTCAGACCAACATTGCTACGACCCGTATTCGCACCGACAC | -7.69 ± 0.13 | -5.32 ± 0.75
21 | ACATTAGTTGATACAACCATAAAATGATAATTACACCCATAAATGGATAATTATCACACCCAATTTAACTATAACGCTCTGATCATAGTCAGACCAACATTGCTACGACCCGTATTCGCACCGACAC | -6.45 ± 0.32 | -4.68 ± 1.3
22 | ACATTAGTTGATACAACCATAAAATGATAATTACACCCATAAATGGATCATTATCACACCCAATTTAACTATAACGCTCTGATCATAGTCAGACCAACATTGCTACGACCCGTATTCGCACCGACAC | -6.02 ± 0.2 | -4.72 ± 0.67
23 | ACATTAGTTGATACAACCATAAAATGATAATTACACCCATAAATTCATAATTATCACACCCAATTTAACTATAACGCTCTGATCATAGTCAGACCAACATTGCTACGACCCGTATTCGCACCGACAC | -6.87 ± 0.4 | -4.45 ± 0.066
24 | ACATTAGTTGATACAACCATAAAATGATAATTACACCCATAAATTCATCATTATCACACCCAATTTAACTATAACGCTCTGATCATAGTCAGACCAACATTGCTACGACCCGTATTCGCACCGACAC | -7.83 ± 0.12 | -4.99 ± 0.51
25 | ACATTTGTTGATACCCAACGCCCCGTCGCCGGCACAAACGCCCGGTCGCCGGCGACACAAACGCCCGGTCGCGGTAAGAGGATCATAGTCAGACCAACATTGCTACGACCCGTATTCGCACCGACAC | -6.49 ± 0.44 | –
26 | ACATTTGTTGATAGTTGGTATTTTACTATTAATCACCCATAAATTGATAATTATCACACCCATAAATTGATATTGCCTCTGATCATAGTCAGACCAACATTGCTACGACCCGTATTCGCACCGACAC | -7.24 ± 1 | –
27 | ACATTTGTTGATATAATTATCATTTTATGGTTGCAACCATAAAATGATAATTATCATAATTATCATTTTATGGTTGCTCTGATCATAGTCAGACCAACATTGCTACGACCCGTATTCGCACCGACAC | -2.78 ± 0.3 | –
28 | ACATTTGTTGATATAATTATCATTTTATGGTTGTAATTATCATTTTATGGTTGTCACAACCATAAAATGATAATTACTCTGATCATAGTCAGACCAACATTGCTACGACCCGTATTCGCACCGACAC | -6.264 ± 0.019 | –
29 | ACATTTGTTGATATGTCAACCATAAAATGATAATTACACCCATAAATTGATAATTATCACACCCATAAATTGATATTGCCTCTGATCATAGTCAGACCAACATTGCTACGACCCGTATTCGCACCGA | -2.13 ± 0.23 | –
30 | ACATTTGTTGATATGTTGCAACCATAAAATGATAATTACACCCATAAATTGATAATTATCACACCCATAAATTGATATTGCCTCTGATCATAGTCAGACCAACATTGCTACGACCCGTATTCGCACC | -6.84 ± 0.38 | –
31 | ACATTTGTTGATGCAACCATAAAATGATAATTAATAATTATTTATAATCAGCAACTTAACCACAAAACACCCATAAATTGATAATTAACAAAACACCCATAAATTGATATTGCCTCTGATCATAGTC | -4.62 ± 0.92 | –
32 | ACATTTGTTGATGCAACCATAAAGTGATATTTAATAATTATTTATAATCAGCAACTTAACCACAAAACAACCATATATTGATATCTCACAAAACAACCATAAGTTGATATTTTCTCTGATCATAGTC | – | < -10
33 | ACATTTGTTGCAACCATAAAATGATAATTACACCCATAAATTGATAATTATCACACCCATAAATTGATATTGCCTCTGATCATAGTCAGACCAACATTGCTACGACCCGTATTCGCACCGACACTGA | -7.1 ± 0.91 | –
34 | CAAAATGTAAAAAAAACCATACGTTGATTTTACGAAACCATACGCTGAAATAAAAACAACCATACCTTGAAATTGCTTATAAAGTGTACAACACTTGAGAAAGTTTACTACAGGTATGCACCGACAC | – | < -10
35 | CAAAATGTTGATAAAACCATACGTTGATTTTACGAAACCATACGCTGAAATAAAAACAACCATACCTTGAAATTGCTTATAAAGTGTACAACACTTGAGAAAGTTTACTACAGGTATGCACCGACAC | -9.08 ± 1.1 | –
